Results taken from patent US20260242419A1, “A CYCLIC PEPTIDE FOR TRAPPING INTERLEUKIN-1 BETA” (Merck Sharp & Dohme LLC, priority 2023, published 2026).
Starred links: 1 amine or outer side, 2 acyl side, 3 side chain; linkers in the order of their positions; H or OH if unused. Non-standard residues stand in square brackets, D forms with d. dProc3Bn4Pyrim2NMe = (2R,3S)-3-[[4-[2-(methylamino)pyrimidin-5-yl]phenyl]methyl]pyrrolidine-2-carboxylic acid, CNc1ncc(-c2ccc(C[C@H]3CCN([*:1])[C@H]3C(=O)[*:2])cc2)cn1; dProc3Bn4Pyrim2OMe = (2R,3S)-3-[[4-(2-methoxypyrimidin-5-yl)phenyl]methyl]pyrrolidine-2-carboxylic acid, COc1ncc(-c2ccc(C[C@H]3CCN([*:1])[C@H]3C(=O)[*:2])cc2)cn1; dProc3Bn4Pyrim2NH2 = (2R,3S)-3-[[4-(2-aminopyrimidin-5-yl)phenyl]methyl]pyrrolidine-2-carboxylic acid, Nc1ncc(-c2ccc(C[C@H]3CCN([*:1])[C@H]3C(=O)[*:2])cc2)cn1; dProc3Bn4Pyraz5NH2 = (2R,3S)-3-[[4-(5-aminopyrazin-2-yl)phenyl]methyl]pyrrolidine-2-carboxylic acid, Nc1cnc(-c2ccc(C[C@H]3CCN([*:1])[C@H]3C(=O)[*:2])cc2)cn1; dProc3Bn4Iso3Me = (2R,3S)-3-(4-(3-methylisoxazol-4-yl)benzyl)pyrrolidine-2-carboxylic acid, Cc1nocc1-c1ccc(C[C@H]2CCN([*:1])[C@H]2C(=O)[*:2])cc1; dProc3Bn4Pyrim = (2R,3S)-3-[(4-pyrimidin-5-ylphenyl)methyl]pyrrolidine-2-carboxylic acid, O=C([C@H]1[C@@H](Cc2ccc(-c3cncnc3)cc2)CCN1[*:1])[*:2]; dProc3Bn4Pyrz = (2R,3S)-3-[(4-pyridazin-4-ylphenyl)methyl]pyrrolidine-2-carboxylic acid, O=C([C@H]1[C@@H](Cc2ccc(-c3ccnnc3)cc2)CCN1[*:1])[*:2]; dProc3Bn4Pyr2 = (2R,3S)-3-[[4-(2-pyridyl)phenyl]methyl]pyrrolidine-2-carboxylic acid, O=C([C@H]1[C@@H](Cc2ccc(-c3ccccn3)cc2)CCN1[*:1])[*:2]; dProc3Bn4Pyr3 = (2R,3S)-3-[[4-(3-pyridyl)phenyl]methyl]pyrrolidine-2-carboxylic acid, O=C([C@H]1[C@@H](Cc2ccc(-c3cccnc3)cc2)CCN1[*:1])[*:2]; dProc3Bn4Pyr4 = (2R,3S)-3-[[4-(4-pyridyl)phenyl]methyl]pyrrolidine-2-carboxylic acid, O=C([C@H]1[C@@H](Cc2ccc(-c3ccncc3)cc2)CCN1[*:1])[*:2]; Trp(βS-Me,4-F) = C[C@@H](c1c[nH]c2cccc(F)c12)[C@H](N)C(=O)O; Bip(4'-COOH) = N[C@@H](Cc1ccc(-c2ccc(C(=O)O)cc2)cc1)C(=O)O; dPro(4R-Bzl(4-F)) = O=C(O)[C@H]1C[C@@H](Cc2ccc(F)cc2)CN1; Ala(pyrimidin-5-yl) = N[C@@H](Cc1cncnc1)C(=O)O; Phe(4-COOH) = N[C@@H](Cc1ccc(C(=O)O)cc1)C(=O)O; Pro(cis-4-F) = O=C(O)[C@@H]1C[C@H](F)CN1; 4Pal = N[C@@H](Cc1ccncc1)C(=O)O; Cit = NC(=O)NCCC[C@H](N)C(=O)O; Dab = NCC[C@H](N)C(=O)O; Aib = CC(C)(N)C(=O)O

Biological target: Recombinant human IL-1β (BioLegend 579404) (human, UniProt P01584 117-269)
Assay: cell-based or functional assay

| Binder | MRC5 IC50 |
| --- | --- |
| cyclo([Bip(4'-COOH)][4Pal][Phe(4-COOH)]G[Pro(cis-4-F)][Trp(βS-Me,4-F)][Aib]EW[Aib][Cit]Q[Dab]G[dPro(4R-Bzl(4-F))]) (SMILES C[C@@H](c1c[nH]c2cccc(F)c12)[C@@H]1NC(=O)[C@@H]2C[C@H](F)CN2C(=O)CNC(=O)[C@H](Cc2ccc(C(=O)O)cc2)NC(=O)[C@H](Cc2ccncc2)NC(=O)[C@H](Cc2ccc(-c3ccc(C(=O)O)cc3)cc2)NC(=O)[C@H]2C[C@@H](Cc3ccc(F)cc3)CN2C(=O)CNC(=O)[C@H](CCN)NC(=O)[C@H](CCC(N)=O)NC(=O)[C@H](CCCNC(N)=O)NC(=O)C(C)(C)NC(=O)[C@H](Cc2c[nH]c3ccccc23)NC(=O)[C@H](CCC(=O)O)NC(=O)C(C)(C)NC1=O) [SEQ ID NO: 52] | 0.021 nM |
| cyclo([Bip(4'-COOH)][4Pal][Phe(4-COOH)]G[Pro(cis-4-F)][Trp(βS-Me,4-F)][Aib]EW[Aib][Ala(pyrimidin-5-yl)]Q[Dab]G[dProc3Bn4Pyrim]) (SMILES C[C@@H](c1c[nH]c2cccc(F)c12)[C@@H]1NC(=O)[C@@H]2C[C@H](F)CN2C(=O)CNC(=O)[C@H](Cc2ccc(C(=O)O)cc2)NC(=O)[C@H](Cc2ccncc2)NC(=O)[C@H](Cc2ccc(-c3ccc(C(=O)O)cc3)cc2)NC(=O)[C@H]2[C@@H](Cc3ccc(-c4cncnc4)cc3)CCN2C(=O)CNC(=O)[C@H](CCN)NC(=O)[C@H](CCC(N)=O)NC(=O)[C@H](Cc2cncnc2)NC(=O)C(C)(C)NC(=O)[C@H](Cc2c[nH]c3ccccc23)NC(=O)[C@H](CCC(=O)O)NC(=O)C(C)(C)NC1=O) [SEQ ID NO: 53] | 0.018 nM |
| cyclo([Bip(4'-COOH)][4Pal][Phe(4-COOH)]G[Pro(cis-4-F)][Trp(βS-Me,4-F)][Aib]EW[Aib][Ala(pyrimidin-5-yl)]Q[Dab]G[dProc3Bn4Pyrim2NMe]) (SMILES CNc1ncc(-c2ccc(C[C@H]3CCN4C(=O)CNC(=O)[C@H](CCN)NC(=O)[C@H](CCC(N)=O)NC(=O)[C@H](Cc5cncnc5)NC(=O)C(C)(C)NC(=O)[C@H](Cc5c[nH]c6ccccc56)NC(=O)[C@H](CCC(=O)O)NC(=O)C(C)(C)NC(=O)[C@H]([C@@H](C)c5c[nH]c6cccc(F)c56)NC(=O)[C@@H]5C[C@H](F)CN5C(=O)CNC(=O)[C@H](Cc5ccc(C(=O)O)cc5)NC(=O)[C@H](Cc5ccncc5)NC(=O)[C@H](Cc5ccc(-c6ccc(C(=O)O)cc6)cc5)NC(=O)[C@@H]34)cc2)cn1) [SEQ ID NO: 54] | 0.021 nM |
| cyclo([Bip(4'-COOH)][4Pal][Phe(4-COOH)]G[Pro(cis-4-F)][Trp(βS-Me,4-F)][Aib]EW[Aib][Ala(pyrimidin-5-yl)]Q[Dab]G[dProc3Bn4Pyr4]) (SMILES C[C@@H](c1c[nH]c2cccc(F)c12)[C@@H]1NC(=O)[C@@H]2C[C@H](F)CN2C(=O)CNC(=O)[C@H](Cc2ccc(C(=O)O)cc2)NC(=O)[C@H](Cc2ccncc2)NC(=O)[C@H](Cc2ccc(-c3ccc(C(=O)O)cc3)cc2)NC(=O)[C@H]2[C@@H](Cc3ccc(-c4ccncc4)cc3)CCN2C(=O)CNC(=O)[C@H](CCN)NC(=O)[C@H](CCC(N)=O)NC(=O)[C@H](Cc2cncnc2)NC(=O)C(C)(C)NC(=O)[C@H](Cc2c[nH]c3ccccc23)NC(=O)[C@H](CCC(=O)O)NC(=O)C(C)(C)NC1=O) [SEQ ID NO: 55] | 0.024 nM |
| cyclo([Bip(4'-COOH)][4Pal][Phe(4-COOH)]G[Pro(cis-4-F)][Trp(βS-Me,4-F)][Aib]EW[Aib][Ala(pyrimidin-5-yl)]Q[Dab]G[dProc3Bn4Pyr3]) (SMILES C[C@@H](c1c[nH]c2cccc(F)c12)[C@@H]1NC(=O)[C@@H]2C[C@H](F)CN2C(=O)CNC(=O)[C@H](Cc2ccc(C(=O)O)cc2)NC(=O)[C@H](Cc2ccncc2)NC(=O)[C@H](Cc2ccc(-c3ccc(C(=O)O)cc3)cc2)NC(=O)[C@H]2[C@@H](Cc3ccc(-c4cccnc4)cc3)CCN2C(=O)CNC(=O)[C@H](CCN)NC(=O)[C@H](CCC(N)=O)NC(=O)[C@H](Cc2cncnc2)NC(=O)C(C)(C)NC(=O)[C@H](Cc2c[nH]c3ccccc23)NC(=O)[C@H](CCC(=O)O)NC(=O)C(C)(C)NC1=O) [SEQ ID NO: 56] | 0.022 nM |
| cyclo([Bip(4'-COOH)][4Pal][Phe(4-COOH)]G[Pro(cis-4-F)][Trp(βS-Me,4-F)][Aib]EW[Aib][Ala(pyrimidin-5-yl)]Q[Dab]G[dProc3Bn4Pyraz5NH2]) (SMILES C[C@@H](c1c[nH]c2cccc(F)c12)[C@@H]1NC(=O)[C@@H]2C[C@H](F)CN2C(=O)CNC(=O)[C@H](Cc2ccc(C(=O)O)cc2)NC(=O)[C@H](Cc2ccncc2)NC(=O)[C@H](Cc2ccc(-c3ccc(C(=O)O)cc3)cc2)NC(=O)[C@H]2[C@@H](Cc3ccc(-c4cnc(N)cn4)cc3)CCN2C(=O)CNC(=O)[C@H](CCN)NC(=O)[C@H](CCC(N)=O)NC(=O)[C@H](Cc2cncnc2)NC(=O)C(C)(C)NC(=O)[C@H](Cc2c[nH]c3ccccc23)NC(=O)[C@H](CCC(=O)O)NC(=O)C(C)(C)NC1=O) [SEQ ID NO: 57] | 0.019 nM |
| cyclo([Bip(4'-COOH)][4Pal][Phe(4-COOH)]G[Pro(cis-4-F)][Trp(βS-Me,4-F)][Aib]EW[Aib][Ala(pyrimidin-5-yl)]Q[Dab]G[dProc3Bn4Pyrz]) (SMILES C[C@@H](c1c[nH]c2cccc(F)c12)[C@@H]1NC(=O)[C@@H]2C[C@H](F)CN2C(=O)CNC(=O)[C@H](Cc2ccc(C(=O)O)cc2)NC(=O)[C@H](Cc2ccncc2)NC(=O)[C@H](Cc2ccc(-c3ccc(C(=O)O)cc3)cc2)NC(=O)[C@H]2[C@@H](Cc3ccc(-c4ccnnc4)cc3)CCN2C(=O)CNC(=O)[C@H](CCN)NC(=O)[C@H](CCC(N)=O)NC(=O)[C@H](Cc2cncnc2)NC(=O)C(C)(C)NC(=O)[C@H](Cc2c[nH]c3ccccc23)NC(=O)[C@H](CCC(=O)O)NC(=O)C(C)(C)NC1=O) [SEQ ID NO: 58] | 0.037 nM |
| cyclo([Bip(4'-COOH)][4Pal][Phe(4-COOH)]G[Pro(cis-4-F)][Trp(βS-Me,4-F)][Aib]EW[Aib][Ala(pyrimidin-5-yl)]Q[Dab]G[dProc3Bn4Pyrim2NH2]) (SMILES C[C@@H](c1c[nH]c2cccc(F)c12)[C@@H]1NC(=O)[C@@H]2C[C@H](F)CN2C(=O)CNC(=O)[C@H](Cc2ccc(C(=O)O)cc2)NC(=O)[C@H](Cc2ccncc2)NC(=O)[C@H](Cc2ccc(-c3ccc(C(=O)O)cc3)cc2)NC(=O)[C@H]2[C@@H](Cc3ccc(-c4cnc(N)nc4)cc3)CCN2C(=O)CNC(=O)[C@H](CCN)NC(=O)[C@H](CCC(N)=O)NC(=O)[C@H](Cc2cncnc2)NC(=O)C(C)(C)NC(=O)[C@H](Cc2c[nH]c3ccccc23)NC(=O)[C@H](CCC(=O)O)NC(=O)C(C)(C)NC1=O) [SEQ ID NO: 59] | 0.018 nM |
| cyclo([Bip(4'-COOH)][4Pal][Phe(4-COOH)]G[Pro(cis-4-F)][Trp(βS-Me,4-F)][Aib]AW[Aib][Ala(pyrimidin-5-yl)]Q[Dab]G[dPro(4R-Bzl(4-F))]) (SMILES C[C@@H]1NC(=O)C(C)(C)NC(=O)[C@H]([C@@H](C)c2c[nH]c3cccc(F)c23)NC(=O)[C@@H]2C[C@H](F)CN2C(=O)CNC(=O)[C@H](Cc2ccc(C(=O)O)cc2)NC(=O)[C@H](Cc2ccncc2)NC(=O)[C@H](Cc2ccc(-c3ccc(C(=O)O)cc3)cc2)NC(=O)[C@H]2C[C@@H](Cc3ccc(F)cc3)CN2C(=O)CNC(=O)[C@H](CCN)NC(=O)[C@H](CCC(N)=O)NC(=O)[C@H](Cc2cncnc2)NC(=O)C(C)(C)NC(=O)[C@H](Cc2c[nH]c3ccccc23)NC1=O) [SEQ ID NO: 6] | 0.057 nM |
| cyclo([Bip(4'-COOH)][4Pal][Phe(4-COOH)]G[Pro(cis-4-F)][Trp(βS-Me,4-F)][Aib]EW[Aib][Ala(pyrimidin-5-yl)]Q[Dab]G[dProc3Bn4Pyrim2OMe]) (SMILES COc1ncc(-c2ccc(C[C@H]3CCN4C(=O)CNC(=O)[C@H](CCN)NC(=O)[C@H](CCC(N)=O)NC(=O)[C@H](Cc5cncnc5)NC(=O)C(C)(C)NC(=O)[C@H](Cc5c[nH]c6ccccc56)NC(=O)[C@H](CCC(=O)O)NC(=O)C(C)(C)NC(=O)[C@H]([C@@H](C)c5c[nH]c6cccc(F)c56)NC(=O)[C@@H]5C[C@H](F)CN5C(=O)CNC(=O)[C@H](Cc5ccc(C(=O)O)cc5)NC(=O)[C@H](Cc5ccncc5)NC(=O)[C@H](Cc5ccc(-c6ccc(C(=O)O)cc6)cc5)NC(=O)[C@@H]34)cc2)cn1) [SEQ ID NO: 60] | 0.018 nM |
| cyclo([Bip(4'-COOH)][4Pal][Phe(4-COOH)]G[Pro(cis-4-F)][Trp(βS-Me,4-F)][Aib]EW[Aib][Ala(pyrimidin-5-yl)]Q[Dab]G[dProc3Bn4Pyr2]) (SMILES C[C@@H](c1c[nH]c2cccc(F)c12)[C@@H]1NC(=O)[C@@H]2C[C@H](F)CN2C(=O)CNC(=O)[C@H](Cc2ccc(C(=O)O)cc2)NC(=O)[C@H](Cc2ccncc2)NC(=O)[C@H](Cc2ccc(-c3ccc(C(=O)O)cc3)cc2)NC(=O)[C@H]2[C@@H](Cc3ccc(-c4ccccn4)cc3)CCN2C(=O)CNC(=O)[C@H](CCN)NC(=O)[C@H](CCC(N)=O)NC(=O)[C@H](Cc2cncnc2)NC(=O)C(C)(C)NC(=O)[C@H](Cc2c[nH]c3ccccc23)NC(=O)[C@H](CCC(=O)O)NC(=O)C(C)(C)NC1=O) [SEQ ID NO: 61] | 0.022 nM |
| cyclo([Bip(4'-COOH)][4Pal][Phe(4-COOH)]G[Pro(cis-4-F)][Trp(βS-Me,4-F)][Aib]EW[Aib][Ala(pyrimidin-5-yl)]Q[Dab]G[dProc3Bn4Iso3Me]) (SMILES Cc1nocc1-c1ccc(C[C@H]2CCN3C(=O)CNC(=O)[C@H](CCN)NC(=O)[C@H](CCC(N)=O)NC(=O)[C@H](Cc4cncnc4)NC(=O)C(C)(C)NC(=O)[C@H](Cc4c[nH]c5ccccc45)NC(=O)[C@H](CCC(=O)O)NC(=O)C(C)(C)NC(=O)[C@H]([C@@H](C)c4c[nH]c5cccc(F)c45)NC(=O)[C@@H]4C[C@H](F)CN4C(=O)CNC(=O)[C@H](Cc4ccc(C(=O)O)cc4)NC(=O)[C@H](Cc4ccncc4)NC(=O)[C@H](Cc4ccc(-c5ccc(C(=O)O)cc5)cc4)NC(=O)[C@@H]23)cc1) [SEQ ID NO: 62] | 0.021 nM |
